# Source: the supplement of paper PMC10567573
# B1: TPPP (parent)
# chain: LCKDCQVIDGRNVTVTDVDIVFSK
# Variants of: B1
# Assay: protein stability index of a GFP-peptide fusion (GPS, HEK-293T) (PSI 1-6); higher = more stable
# Conditions: c terminus: a fixed tail appended
# 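Note: lentivirally expressed fusions sorted by FACS into six bins by GFP to DsRed ratio, PSI derived from sequencing read proportions per bin multiplied by bin number.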
row,Variant,protein stability index
1,LCKDCQVIDGRNVTVTDIDIVFSK [V18I],2.44
2,LCKDCQVIDGRNVTVTDFDIVFSK [V18F],2.54
3,LCKDCQVIDGRNVTVTDEDIVFSK [V18E],3.52
4,LCKDCQVIDGRNVTVTDPDIVFSK [V18P],2.73
5,LCKDCQVIDGRNYTVTDVDIVFSK [V13Y],2.37
6,LCKDCQVIDGRNWTVTDVDIVFSK [V13W],3.13
7,LCKDCQVIDGRNLTVTDVDIVFSK [V13L],2.48
8,LCKDCQVIDGRNDTVTDVDIVFSK [V13D],3.04
9,LCKDCQVIDGRNSTVTDVDIVFSK [V13S],3.12
10,LCKDCQVIDGRNHTVTDVDIVFSK [V13H],2.32
11,LCKDCQVIDGRNMTVTDVDIVFSK [V13M],2.54
12,LCKDCQVIDGRNQTVTDVDIVFSK [V13Q],2.49
13,LCKDCQVIDGRNETVTDVDIVFSK [V13E],3.59
14,LCKDCQVIDGRNKTVTDVDIVFSK [V13K],2.36
15,LCKDCQVIDGRNITVTDVDIVFSK [V13I],2.31
16,LCKDCQVIDGRNFTVTDVDIVFSK [V13F],2.08
17,LCKDCQVIDGRNPTVTDVDIVFSK [V13P],3.08
18,LCKDCQVIDGRNCTVTDVDIVFSK [V13C],2.16
19,LCKDCQVIDGRNNTVTDVDIVFSK [V13N],2.6
20,LCKDCQVIDGRNTTVTDVDIVFSK [V13T],2.38
21,LCKDCQVIDGRNRTVTDVDIVFSK [V13R],3.03
22,LCKDCQVIDGRNATVTDVDIVFSK [V13A],2.75
23,LCKDCQVIDGRNGTVTDVDIVFSK [V13G],2.79
24,LCKDCQVIDGRNVTVTNVDIVFSK [D17N],1.45

row,Variant,protein stability index
1,LCKDCQVIDGRNVTVTSVDIVFSK [D17S],1.28
2,LCKDCQVIDGRNVTVTQVDIVFSK [D17Q],1.77
3,LCKDCQVIDGRNVTVTMVDIVFSK [D17M],2.29
4,LCKDCQVIDGRNVTVTEVDIVFSK [D17E],2.07
5,LCKDCQVIDGRNVTVTGVDIVFSK [D17G],2.14
6,LCKDCQVIDGRNVTVTLVDIVFSK [D17L],3.14
7,LCKDCQVIDGRNVTVTWVDIVFSK [D17W],2.1
8,LCKDCQVIDGRNVTVTYVDIVFSK [D17Y],2.97
9,LCKDCQVIDGRNVTVTHVDIVFSK [D17H],2.48
10,LCKDCQVIDGRNVTVTRVDIVFSK [D17R],2.92
11,LCKDCQVIDGRNVTVTTVDIVFSK [D17T],1.69
12,LCKDCQVIDGRNVTVTAVDIVFSK [D17A],2.33
13,LCKDCQVIDGRNVTVTKVDIVFSK [D17K],1.77
14,LCKDCQVIDGRNVTVTPVDIVFSK [D17P],2.21
15,LCKDCQVIDGRNVTVTIVDIVFSK [D17I],3.91
16,LCKDCQVIDGRNVTVTVVDIVFSK [D17V],2.65
17,LCKDCQVIDGRHVTVTDVDIVFSK [N12H],2.65
18,LCKDCQVIDGRTVTVTDVDIVFSK [N12T],2.11
19,LCKDCQVIDGRKVTVTDVDIVFSK [N12K],2.52
20,LCKDCQVIDGRQVTVTDVDIVFSK [N12Q],2.3
21,LCKDCQVIDGRGVTVTDVDIVFSK [N12G],2.48
22,LCKDCQVIDGRLVTVTDVDIVFSK [N12L],2.57
23,LCKDCQVIDGRIVTVTDVDIVFSK [N12I],1.53
24,LCKDCQVIDGREVTVTDVDIVFSK [N12E],3.88

row,Variant,protein stability index
1,LCKDCQVIDGRSVTVTDVDIVFSK [N12S],1.98
2,LCKDCQVIDGRFVTVTDVDIVFSK [N12F],2.48
3,LCKDCQVIDGRPVTVTDVDIVFSK [N12P],2.4
4,LCKDCQVIDGRRVTVTDVDIVFSK [N12R],2.23
5,LCKDCQVIDGRAVTVTDVDIVFSK [N12A],2.57
6,LCKDCQVIDGRDVTVTDVDIVFSK [N12D],2.68
7,LCKDCQVIDGRYVTVTDVDIVFSK [N12Y],2.66
8,LCKDCQVIDGRVVTVTDVDIVFSK [N12V],1.71
9,LCKDCQVIDGRCVTVTDVDIVFSK [N12C],2.17
10,LCKDCQVIDGRMVTVTDVDIVFSK [N12M],1.73
11,LCKDCQVIDGRNVTVTDVRIVFSK [D19R],1.36
12,LCKDCQVIDGRNVTVTDVAIVFSK [D19A],2.77
13,LCKDCQVIDGRNVTVTDVVIVFSK [D19V],1.95
14,LCKDCQVIDGRNVTVTDVTIVFSK [D19T],1.42
15,LCKDCQVIDGRNVTVTDVFIVFSK [D19F],2.45
16,LCKDCQVIDGRNVTVTDVPIVFSK [D19P],2.56
17,LCKDCQVIDGRNVTVTDVEIVFSK [D19E],1.79
18,LCKDCQVIDGRNVTVTDVCIVFSK [D19C],2.4
19,LCKDCQVIDGRNVTVTDVQIVFSK [D19Q],1.65
20,LCKDCQVIDGRNVTVTDVLIVFSK [D19L],2.26
21,LCKDCQVIDGRNVTVTDVMIVFSK [D19M],2.28
22,LCKDCQVIDGRNVTVTDVKIVFSK [D19K],1.39
23,LCKDCQVIDGRNVTVTDVWIVFSK [D19W],2.96
24,LCKDCQVIDGRNVTVTDVSIVFSK [D19S],2.39

row,Variant,protein stability index
1,LCKDCQVIDGRNVTVTDVGIVFSK [D19G],2.08
2,LCKDCQVIDGRNVTVTDVNIVFSK [D19N],2.13
3,LCKDCQVIDGRNVTVTDVYIVFSK [D19Y],1.47
4,LCKDCQVIDGRNVTVTDVHIVFSK [D19H],2.97
5,LCKDCQVIDGRNVTVTDVIIVFSK [D19I],2.09
6,LCKDCQVIDGRNVTVCDVDIVFSK [T16C],1.72
7,LCKDCQVIDGRNVTVIDVDIVFSK [T16I],3.14
8,LCKDCQVIDGRNVTVHDVDIVFSK [T16H],2.44
9,LCKDCQVIDGRNVTVDDVDIVFSK [T16D],3.37
10,LCKDCQVIDGRNVTVNDVDIVFSK [T16N],2.59
11,LCKDCQVIDGRNVTVYDVDIVFSK [T16Y],1.3
12,LCKDCQVIDGRNVTVPDVDIVFSK [T16P],2.23
13,LCKDCQVIDGRNVTVADVDIVFSK [T16A],2.23
14,LCKDCQVIDGRNVTVKDVDIVFSK [T16K],3.06
15,LCKDCQVIDGRNVTVQDVDIVFSK [T16Q],2.54
16,LCKDCQVIDGRNVTVRDVDIVFSK [T16R],2.44
17,LCKDCQVIDGRNVTVEDVDIVFSK [T16E],3.01
18,LCKDCQVIDGRNVTVMDVDIVFSK [T16M],1.48
19,LCKDCQVIDGRNVTVSDVDIVFSK [T16S],2.92
20,LCKDCQVIDGRNVTVWDVDIVFSK [T16W],1.24
21,LCKDCQVIDGRNVTVLDVDIVFSK [T16L],1.72
22,LCKDCQVIDGRNVTVGDVDIVFSK [T16G],2.01
